Drawing on article PMC4302019, this text covers stoichiometry N for one substance.

In the assay the target is SibV (predicted extradiol dioxygenase of sibiromycin biosynthesis), holo form reconstituted with Fe2+ (Streptosporangium sibiricum). In words: SEC. (Size exclusion chromatography separates by hydrodynamic size, large species first.)

One may read the stoichiometry N as a count of units in the complex or per binding partner. For the substance “SibV (predicted extradiol dioxygenase of sibiromycin biosynthesis), holo form reconstituted with Fe2+ (enzyme)”, the stoichiometry N was 2.
